Source: the supplement of paper PMC9112550, “Optimization of the antimicrobial peptide Bac7 by deep mutational scanning” (BMC Biology, 2022)

Test system: Escherichia coli TOP10
Assay: shrunken log2 fold change of peptide-encoding DNA abundance (4.5 h post-induction vs induction); higher = less antimicrobial activity (less host growth inhibition)
Settings: time post-induction: 4.5 h; library: site-saturation at positions 5, 18, 19, 20
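Further: peptides expressed intracellularly from a pBAD plasmid library in pooled LB shake-flask culture, induced with 0.3% L-arabinose, DNA abundance read by NGS, three biological replicates, DESeq2 with apeglm shrinkage.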

Row | Sequence | shrunken log2 fold change
1 | RRIRRRPPRLPRPRPRPYQQPRP | -0.000903
2 | RRIRRRPPRLPRPRPRPYSDPRP | 0.186
3 | RRIRRRPPRLPRPRPRPYSPPRP | 0.00204
4 | RRIRRRPPRLPRPRPRPYTEPRP | -0.452
5 | RRIRRRPPRLPRPRPRPYWRPRP | 0.0363
6 | RRIRRRPPRLPRPRPRPYYPPRP | -0.468
7 | RRIRSRPPRLPRPRPRPAAEPRP | 0.466
8 | RRIRSRPPRLPRPRPRPAAYPRP | 0.269
9 | RRIRSRPPRLPRPRPRPADVPRP | 0.438
10 | RRIRSRPPRLPRPRPRPAEDPRP | -0.0146
11 | RRIRSRPPRLPRPRPRPAEMPRP | 0.125
12 | RRIRSRPPRLPRPRPRPAFFPRP | 0.328
13 | RRIRSRPPRLPRPRPRPAFKPRP | -0.333
14 | RRIRSRPPRLPRPRPRPAFLPRP | -0.0125
15 | RRIRSRPPRLPRPRPRPAIAPRP | -0.00626
16 | RRIRSRPPRLPRPRPRPAKSPRP | 0.0744
17 | RRIRSRPPRLPRPRPRPALCPRP | 0.292
18 | RRIRSRPPRLPRPRPRPALIPRP | 0.0414
19 | RRIRSRPPRLPRPRPRPAMMPRP | -0.0721
20 | RRIRSRPPRLPRPRPRPAPNPRP | 0.329
21 | RRIRSRPPRLPRPRPRPAQNPRP | 0.241
22 | RRIRSRPPRLPRPRPRPAQWPRP | 0.595
23 | RRIRSRPPRLPRPRPRPAREPRP | 0.0982
24 | RRIRSRPPRLPRPRPRPASGPRP | 0.268
25 | RRIRSRPPRLPRPRPRPASLPRP | -0.0507

Row | Sequence | shrunken log2 fold change
26 | RRIRSRPPRLPRPRPRPASRPRP | 0.189
27 | RRIRSRPPRLPRPRPRPAVGPRP | 0.391
28 | RRIRSRPPRLPRPRPRPAVWPRP | 0.765
29 | RRIRSRPPRLPRPRPRPAWFPRP | 0.171
30 | RRIRSRPPRLPRPRPRPAWMPRP | -0.263
31 | RRIRSRPPRLPRPRPRPAYFPRP | -0.297
32 | RRIRSRPPRLPRPRPRPCADPRP | 0.0939
33 | RRIRSRPPRLPRPRPRPCATPRP | 0.162
34 | RRIRSRPPRLPRPRPRPCCGPRP | 0.983
35 | RRIRSRPPRLPRPRPRPCCVPRP | 0.0729
36 | RRIRSRPPRLPRPRPRPCCWPRP | -0.0914
37 | RRIRSRPPRLPRPRPRPCDDPRP | 0.161
38 | RRIRSRPPRLPRPRPRPCDMPRP | -0.184
39 | RRIRSRPPRLPRPRPRPCFQPRP | -0.0966
40 | RRIRSRPPRLPRPRPRPCHLPRP | -0.0433
41 | RRIRSRPPRLPRPRPRPCHPPRP | 0.0162
42 | RRIRSRPPRLPRPRPRPCIDPRP | -0.607
43 | RRIRSRPPRLPRPRPRPCISPRP | -0.0391
44 | RRIRSRPPRLPRPRPRPCKDPRP | -0.153
45 | RRIRSRPPRLPRPRPRPCKFPRP | -0.301
46 | RRIRSRPPRLPRPRPRPCKTPRP | 0.0503
47 | RRIRSRPPRLPRPRPRPCKWPRP | -0.053
48 | RRIRSRPPRLPRPRPRPCLDPRP | -0.224
49 | RRIRSRPPRLPRPRPRPCMDPRP | -0.0717
50 | RRIRSRPPRLPRPRPRPCNGPRP | -0.0821

Row | Sequence | shrunken log2 fold change
51 | RRIRSRPPRLPRPRPRPCPHPRP | -0.283
52 | RRIRSRPPRLPRPRPRPCRAPRP | -0.0808
53 | RRIRSRPPRLPRPRPRPCVCPRP | 0.0568
54 | RRIRSRPPRLPRPRPRPCWPPRP | 0.42
55 | RRIRSRPPRLPRPRPRPCYFPRP | -0.387
56 | RRIRSRPPRLPRPRPRPCYKPRP | -0.281
57 | RRIRSRPPRLPRPRPRPCYYPRP | -0.571
58 | RRIRSRPPRLPRPRPRPDADPRP | -0.0578
59 | RRIRSRPPRLPRPRPRPDCMPRP | -0.165
60 | RRIRSRPPRLPRPRPRPDCRPRP | 0.0345
61 | RRIRSRPPRLPRPRPRPDCWPRP | 0.362
62 | RRIRSRPPRLPRPRPRPDESPRP | -0.264
63 | RRIRSRPPRLPRPRPRPDFAPRP | -0.021
64 | RRIRSRPPRLPRPRPRPDGCPRP | 0.0344
65 | RRIRSRPPRLPRPRPRPDGFPRP | -0.0636
66 | RRIRSRPPRLPRPRPRPDGMPRP | -0.113
67 | RRIRSRPPRLPRPRPRPDHMPRP | -0.00607
68 | RRIRSRPPRLPRPRPRPDHPPRP | -0.0828
69 | RRIRSRPPRLPRPRPRPDHTPRP | -0.407
70 | RRIRSRPPRLPRPRPRPDKQPRP | -0.0566
71 | RRIRSRPPRLPRPRPRPDLEPRP | -0.0903
72 | RRIRSRPPRLPRPRPRPDMQPRP | -0.00211
73 | RRIRSRPPRLPRPRPRPDNEPRP | -0.0519
74 | RRIRSRPPRLPRPRPRPDRWPRP | 0.0855
75 | RRIRSRPPRLPRPRPRPDSDPRP | 0.051
